The target in experiment [1] is RSV prefusion F (preF, DS-Cav1) (Respiratory syncytial virus). Nature of the experiment: BLI, IgG on sensor, 100 nM antigen. Background: Biolayer interferometry detects binding as a change in optical thickness at a sensor tip.
Experiment [2] addresses RSV postfusion F (postF, F deltaFP) (Respiratory syncytial virus). Put plainly: BLI, IgG on sensor, 100 nM antigen.
The target in experiment [3] is Respiratory Syncytial Virus fusion glycoprotein (RSV F) on RSV-A2 virus (Respiratory Syncytial Virus subtype A (RSV-A2)). Nature of the experiment: cell-based or functional assay.
Experiment [4] has as its target RSV prefusion F (preF), DS-Cav1 (Respiratory Syncytial Virus). Nature of the experiment: BLI, IgG on anti-human IgG sensor, 100 nM antigen.

Our source for the Kd and Neutralization IC50 (RSV subtype A) values is patent US20260258115A1.

A value given as a limit tells only on which side of the number the result lay.

B1: ADI-41243 (antibody, V domains shown)
VH: QVQLVQSRAEVKKPGESLKISCKGSLHSFSNNWIGWVRQMPGKGLEWMGIIFPDDSDTRYSPSFQGQVTISADKSISTAYLQWSSLKASDTAIYYCGTVVTLIQGVADWGQGTLVTVSS
VL: QPVLTQPHSVSESPGKTVTISCTRSSGSIDSSYVQWYQQRPGSSPTTVIYEDNLRPSGVPDRFSGSIDSSSNSASLTISGLKTEDEAEYYCQSYDSSNPVVFGGGTKLTVL
What is called Kd is the concentration at which binding is half-saturated. Low readings indicate tighter binding, high ones weaker binding. For the molecule B1, the results for the Kd in experiment [1] and in experiment [2] were 3.55 nM and 0.418 nM, respectively.

B2: ADI-41236 (antibody, V domains shown)
VH: QVQLVQSGGGLVKPGGSLRLSCTASGFTFSDYYMDWIRQAPGKGLEWVSSISSSSTYTKYADSVKGRFTISRDNAKNSLFLQMNSLRAEDTAVYYCVRNLGPYCSSTSCFVFDYWGQGTLVTVSS
VL: QSVLTQPPSVSGAPGQRVSISCTGSSSNIGAGYEVHWYKQVPGTAPRLLMYDNTNRPSGVPDRVSGSKSGTSASLAITGLQAEDEADYYCQSYDNSLNKSVFGGGTKVTVL
Molecule B2 came in with a Kd in experiment [2] of 61.3 nM. This lies in the double-digit nanomolar range.

B3: ADI-41240 (antibody, V domains shown)
VH: QVQLQQWGAGLLKPSETLSLICDVYGGSFSDYYWSWIRQSPGKGLEWIGEINHSGSTSFHPSLKSRISISIDTSNNQFSLNLSSMTAADTAVYYCARGTLRGYFDYWGQGTLVTVSS
VL: EIVLTQSPSTLSAFVGDRVTITCRASQSISRWLAWYQQKPGKAPNLLISEASSLESGVPSRFSGSGSGTEFTLTISSLQPDDLGTYYCQQYNGYLWTFGQGTKVEIK
Take B3: the dissociation constant Kd is 2.15 nM in experiment [1] and 1.2 nM in experiment [2].

B4: ADI-41289 (antibody, V domains shown)
VH: EVQLVQSGAEVKKPGESLKISCKGSGYSFSSFWIGWVRQMPGKGLEWMGIIYPGDSDTRYSPSFQGQVTISADQSIRTAYLQWNSLKASDTGLYYCAKGGLGDVEMATIAVWGQGTLVTVSS
VL: QSVLIQPASVSGSPGQSITIPCTGTSSDVGSYNLVSWYQHHPGKAPKLIISEGSKRPLGVSNRFSGSKSGNTASLTISGLQAEDEADYYCSSYVRSRTFNYVFGTGTKLTVL
In experiment [2], B4 gave an equilibrium dissociation constant (Kd) of 0.881 nM.

B5: ADI-41264 (antibody, V domains shown)
VH: EVQLVESGGGLVKPGGSLRLSCAASGFTFSNTWMSWVRQAPGKGLEWVGHIKSKTDGGTTDYAAPVKGRFTISRDDSKSILNLHLNSLKTEDSAVYYCAALPPISGWYYTPGFWGQGTLVTVSS
VL: SYELTQPPSMSVSPGQTARITCFGDAVPKKYVYWYQQKSGQAPVMVIYDDRRRPSGIPERFSGSSSGARATLTISGAQVEDEADYYCYSTDGSGNPSFGGGTKLTVL
B5: the equilibrium dissociation constant (Kd) in experiment [2] came to 0.484 nM.

B6: ADI-41244 (antibody, V domains shown)
VH: QVTLKESGGGLIQPGGSLRLSCAVSGFTVSSKYMSWVRQAPGKGLEWVSVIYGGGSTYYTDSVKGRFTISRDNSNNTLYLQMNSLRAEDTAIYYCAREARSYNYDYVGNDAFDIWGQGTTVTVSS
VL: DIVLTQTPDSLAVSLGERATINCKSSQSVLNNFNNKNYLAWYQQKPGQPPKLLIYWASTRESGVPDRFSGSGSGTDFTLTITSLQAEDVAIYYCQQYYRTPPYTFGQGTKVDIK
The molecule B6 gave a Kd in experiment [2] of 0.843 nM.

B7: ADI-41250 (antibody, V domains shown)
VH: QVQLQQWGAGLLKPSETLSLTCAVSGESLTGYFWSWIRQPPGKGLEWIGEVSHSGSTNYNPSLKSRVTMSVDTSKTQFSLKLNSVTAADTAVYYCARGYDYWSGTARYFDYWGQGILVTVSS
VL: QPVLTQPASVSGSPGQSITISCTGTSSDVGGYNYVSWYQQHPGKAPKLMIYDVSNRPSGVSSRFSGSKSGNTASLTISGLQAEDEGDYYCSSYRSSTTSRVFGGGTKVTVL
Consider B7, for which the results for the Kd in experiment [1] and in experiment [2] were 0.731 nM and 0.504 nM, respectively.

B8: ADI-41234 (antibody, V domains shown)
VH: QVQLVQSGGGVVQPGRSLRLSCAASGFTVSSYAIHWVRQSAGKGLEWVAVEGRFTISRDNSKNTLYLQMNSLRAEDTAVYYCARLSEALVEPAAHTQYKYHYGLDVWGQGTTVTVSS
VL: EIVLTQSPLSLPVTPGEPASISCKSSQSLLDSNGYNYLDWYLQKPGQSPQLLIYLVSNRASGVPDRFSGSGSGTDFTLKISRVEAEDVGIYYCMQALQTPWTFGQGTKVEIK
On to B8, for which the Neutralization IC50 (RSV subtype A) in experiment [3] was 0.1 µg/mL. The Kd in experiment [4] was found to be 1.46 nM.

B9: ADI-41248 (antibody, V domains shown)
VH: QVQLVQSGGGVVQPGRSLRLSCAASGFTFSSYSMHWVRQAPGKGLEWMAVCWYDGSNIYYADSVKGRFTISRDNSKNTVYLQMNSLRAEDTAVYYCARDDRYCSGGTCLSAFDIWGQGTMVTVSS
VL: ETTLTQSPSSLSASVGDRVTITCRASQSISSYLNWYQQKPGRAPKLLIYTTSSLQSGVSSRFSGSGSGTDFTLTINSLQPEDFATYYCQQSYSTPNTFGQGTKVEIK
With B9, the values for the equilibrium dissociation constant (Kd) in experiment [1] and in experiment [2] were 3.35 nM and 0.392 nM, respectively.

B10: ADI-41241 (antibody, V domains shown)
VH: QVQLVQSGAEVKKPGASVQVSCKASGYTFTGDYMHWVRQAPGQGLEWMGRINPNSGGTNYAQKFQGRVTMTRDTSISTAYMELSRLRSDDTAVYYCARAAAEYSSSSPTSYYYMDVWGKGTTVTVSS
VL: EIQMTQSPSSLSASVGDRVTITCRASQNIYSFLNWYQQKPGKAPKLLIYAASSLQSGVPSRFSGSGSATDFTLTISSLQPEDFATYYCQQSYSPPQITFGQGTKVDIK
Regarding B10, the equilibrium dissociation constant (Kd) in experiment [1] was determined as 3.84 nM; in experiment [2], 0.927 nM.

B11: ADI-41235 (antibody, V domains shown)
VH: QVQLQQWGAGLLKPSETLSLTCGVYGESFSGHYWSWIRQPPGKGLEWMGEIHHSGTTNYNPSLKSRVTISVDTSKNQFSLKLNSVTAADTAVYYCARNPAEDILTGYSPPFHYYYMDVWGKGTTVTVSS
VL: QSVLTQPPSVSGAPGQRVTISCTGSSSNIGAGYDVHWYQQIPGTAPKLLIHSNNNRPSGVPDRFSGSKSGTSASLAITGLQAEDEADYYCQSYDSSLSVVFGGGTKLTVL
Regarding B11, the values for the dissociation constant (Kd) in experiment [1] and in experiment [2] were 4.72 nM and 3.24 nM, respectively.

B12: ADI-41227 (antibody, V domains shown)
VH: RSSWCSVGAEVKKRGSSVKVSCKASGGTFGGYAVSWVRQAPGQGLEWMGGIIPMFYTTKYAQKLQGRVTITADESTNTAYMDLSSLTSDDTAIYFCAREWHLGRTAVTGTGAFLDAFDIWGQGTMVTVSS
VL: SYELTQPPSVSEAPRQRVTISCSGSSSNIGNNAVNWYQQLPGKAPKLLIYYDDLLPSGVSDRFSGSKSGTSASLAISGLQSEDEADYYCSAWDDSLNGWVFGGGTKLTVL
B12 returned a Neutralization IC50 (RSV subtype A) in experiment [3] of more than 25 µg/mL. For the same molecule, the equilibrium dissociation constant (Kd) in experiment [4] stood at 4.62 nM.

B13: ADI-41247 (antibody, V domains shown)
VH: QVQLVQSGAEVKKPGASLQVSCKASGYTFTDSYFHWVRQAPGQGLEWMGRISPHSGGTNYAQKFQGRVTMTRDTSISTAYLELSRLRSDDTAVYYCATEGPRGPFRFDPWGQGTLVTVSS
VL: NFMLTQPHSVSESPGKTVTISCTRSSGSIASNYVQWYQQRPGSSPTTVIYEDNQRPSGVPDRFSGSIDSSSNSASLTISGLMTEDEADYYCQSYDSSNWVFGGGTKLTVL
As to B13, the Kd was found to be 2.76 nM in experiment [1] and 1.02 nM in experiment [2].

B14: ADI-41233 (antibody, V domains shown)
VH: EVQLLESGGGLVKPGGSLRLSCAASGFIFRDYYMIWIRQAPGKGLEWVSYISSSSTYTNNADSVKGRFTISRDNAKNSLYLQMNSLRAEDTAVYYCARLFASRSDGAFDIWGQGTTVTVSS
VL: QSVLTQPPSVSGAPGQRVTISCTGSSSNIGAGYDVHWYQQLPETAPKLLIYDNNNRPSGVPDRFSGSKSGTSASLAITGLQAEDEADYYCQSYDSSLSGYVFGTGTTVTVL
The molecule B14 gave a Neutralization IC50 (RSV subtype A) in experiment [3] of 0.15 µg/mL. In experiment [4], this molecule gave a Kd of 1.06 nM.
